Test results published in patent US20230287362.

Target: T1, E. cloacae His6-CD-NTase fused at its C terminus to GFP
T1 chain: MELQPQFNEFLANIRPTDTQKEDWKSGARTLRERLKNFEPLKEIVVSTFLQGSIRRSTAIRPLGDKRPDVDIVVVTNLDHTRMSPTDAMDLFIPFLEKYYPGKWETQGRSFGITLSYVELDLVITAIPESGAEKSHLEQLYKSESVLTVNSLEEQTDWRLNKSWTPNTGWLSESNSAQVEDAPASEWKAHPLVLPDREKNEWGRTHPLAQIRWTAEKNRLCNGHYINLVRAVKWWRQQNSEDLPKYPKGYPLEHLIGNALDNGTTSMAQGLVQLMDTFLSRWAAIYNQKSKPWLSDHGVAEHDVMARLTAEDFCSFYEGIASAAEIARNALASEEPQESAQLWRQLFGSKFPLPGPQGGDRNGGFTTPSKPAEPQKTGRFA

B1: E. cloacae Cap3, residues 17-180 of the annotated gene (protein)
chain: MSIKDVTFSSEGALYTIVISSSTIEQMVSECLKAGVNETGGILIGSYSEDSSTAMIVEATTRPADSLAGRTTFQRGVRGLRPLLHARWKTGLYYVGEWHFHPGGSPEPSGDDFRSMTSIAANSDYQCLEPVMIILGGDPAGSYSLSASVSPRGDAPIRLREVLI
cleavage of the CD-NTase-GFP model substrate (SDS-PAGE, mass spectrometry): Both Cap3 proteins precisely cleaved the CD-NTase-GFP fusions at the CD-NTase C terminus
